The text below walks through data of patent publication US20180318437A1 (Bayer, published 2018).

Experiment [1] deals with T1, TPP-5521, recombinant antigen IL3Ra aa20-305 (IL3R3alpha/CD123) (murine (as printed under 'Origin' in …, UniProt P26951 20-305 (human entry))).
T1 construct: Bought protein; also called IL3Ra protein; extracellular domain of IL3Ra
T1 sequence: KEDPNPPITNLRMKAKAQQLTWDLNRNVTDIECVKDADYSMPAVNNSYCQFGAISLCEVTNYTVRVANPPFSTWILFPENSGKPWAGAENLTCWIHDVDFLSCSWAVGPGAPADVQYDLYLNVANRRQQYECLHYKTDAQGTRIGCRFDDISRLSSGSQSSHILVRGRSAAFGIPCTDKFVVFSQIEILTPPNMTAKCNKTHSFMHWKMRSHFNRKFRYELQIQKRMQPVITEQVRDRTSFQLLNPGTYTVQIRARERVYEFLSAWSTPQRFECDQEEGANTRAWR
In words: SPR, Biacore T200, antibody captured by anti-human Fc, IL3Ra (TPP-5521) as analyte 1.56-200 nM, 25 C, 1:1 Langmuir fit. In general terms: SPR reads the build-up and loss of mass on a sensor chip optically.
Experimental: Surface plasmon resonance experiments for quantitative binding analysis were carried out using a Biacore T200 instrument (GE Healthcare Biacore, Inc.). […] Amine coupling was performed according to the manufacturer's instructions using 1-ethyl-3-(3-dimethylaminopropyl)carbodiimide hydrochloride (EDC), N-hydroxysuccinimide (NHS) and ethanolamine HCl pH 8.5 (“Amine Coupling Kit” BR-1000-50, GE Healthcare Biacore, Inc.). For the analyses, Series S sensor chips CM5 (GE Healthcare Biacore, Inc.) were used with the mobile buffer HBS-EP+ (10 mM HEPES pH 7.4, 150 mM NaCl, 3 mM EDTA, 0.05% Surfactant P20). All experimental steps were carried out at 25° C. […] Prior to another analyte injection, antibodies were in each case fixed as above, under identical conditions. For all measurements, an upstream flow cell only containing immobilized amine-coupled anti-human Fc antibody was used as reference cell. Evaluation of the sensorgrams obtained was, after double referencing (subtraction of the reference flow cell signal and a buffer injection), carried out by a global fit based on a 1:1 Langmuir binding model with the aid of the Biacore T200 evaluation software (GE Healthcare Biacore, Inc.).

The target in experiment [2] is T2, IL-3Ralpha, CD123, on CD123-positive human cancer cell lines (human, UniProt P26951 20-378).
T2 construct: Target of the flow cytometry and internalisation assays; The cell line of each value is named under assay
T2 sequence: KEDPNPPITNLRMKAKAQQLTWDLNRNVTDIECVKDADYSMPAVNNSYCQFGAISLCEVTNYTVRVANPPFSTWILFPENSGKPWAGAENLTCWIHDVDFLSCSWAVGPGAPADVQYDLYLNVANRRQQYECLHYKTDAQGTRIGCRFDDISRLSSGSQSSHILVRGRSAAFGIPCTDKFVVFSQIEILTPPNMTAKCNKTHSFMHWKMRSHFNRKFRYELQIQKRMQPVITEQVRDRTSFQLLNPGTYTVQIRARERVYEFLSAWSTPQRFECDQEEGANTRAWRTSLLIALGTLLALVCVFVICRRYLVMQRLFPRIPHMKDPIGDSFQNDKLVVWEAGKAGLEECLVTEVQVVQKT
The experiment in a line: flow cytometry on MV-4-11 cells, titration from 10 ug/ml in 1:5 steps, anti-kappa-FITC secondary antibody; MV-4-11 cells. For orientation: Flow cytometry measures light scatter and fluorescence of single cells or particles in a stream.
Experimental: Binding of the anti-CD123 antibodies was examined by flow cytometry using different human haematological cell lines (MOLM-13, THP-1, KG-1). To this end, the cells (5×10⁵ cells/well) were incubated in FACS buffer (PBS without Ca/Mg, 3% FCS, Biochrom) with 10 μg/ml primary antibody solution (start concentration) on ice for 30-45 min protected from light. A dose activity curve (1:5 dilution) was plotted. After the incubation, 200 μl of ice-cold FACS buffer were added using a pipette, and the cell suspension was centrifuged at 4° C., 400 g, for 4 min. The cell pellet was washed with 300 μl of ice-cold FACS buffer and the pellet obtained was then resuspended in 100 μl FACS buffer and incubated again with secondary antibody (monoclonal anti-kappa light chains-FITC antibody, Sigma, No. SAB4700605) in a 1:10 dilution on ice for 30 min. The cells were then washed with ice-cold FACS buffer and adjusted to a cell concentration of 0.5×10⁶ cell/ml prior to flow cytometry using a Guava flow cytometer (Millipore). Propidium iodide (final concentration 1 μg/ml) was used for live staining.

Usually koff stands for the rate constant with which the complex falls apart. As a reminder, the kon is a measure of how fast the partners come together. One may read the EC50 as the midpoint of the concentration-response curve. A higher EC50 goes with a need for much substance.

B1: TPP-6013 (antibody, human IgG1, kappa, V domains shown)
VH: QVQLQESGPGLVKPSQSLSLTCSVTDYSITSGYYWNWIRQFPGNKLEWMGYISYDGSNNYNPSLKNRISITRDTSKNQFFLKLSSVTTEDTATYYCSRGEGFYFDSWGQGTTLTVSS
VL: DIMMSQSPSSLAVSVGEKFTMTCKSSQSLFFGSTQKNYLAWYQQKPGQSPKLLIYWASTRESGVPDRFTGSGSGTDFTLAISSVMPEDLAVYYCQQYYNYPWTFGGGTKLEIKR
notes: Tested as unconjugated antibody; also called anti-CD123 AK1C; chimeric variant of 12F1
Turning to B1, in experiment [1], the koff stood at 0.00019 s⁻¹ and the kon stood at 300000 M⁻¹ s⁻¹.

B2: TPP-5969 (antibody, human IgG1, kappa, V domains shown)
VH: QVQLVQSGAEVKKPGSSVKVSCKASGGTFSDYYMKWVRQAPGQGLEWMGDIIPSNGATFYAQKFQGRVTITADESTSTAYMELSSLRSEDTAVYYCARSHLLRASWFAYWGQGTLVTVSS
VL: DIVMTQSPDSLAVSLGERATINCESSQSLLNSGNQKNYLTWYQQKPGQPPKLLIYWASTRESGVPDRFSGSGSGTDFTLTISSLQAEDVAVYYCQNDYSYPYTFGQGTKLEIKR
notes: Humanized variant of 7G3 made by CDR grafting, human IgG1 kappa; Tested as unconjugated antibody; also called anti-CD123 AK1A; humanized variant of 7G3
In the case of B2, in experiment [2], the EC50 came to 2.6 nM.
